Assay results published in patent publication US20200399382A1 (ARGENX, published 2020).

T1: human IL-4Rα (SPR target) (human, UniProt P24394 26-232, limits assumed)
T1 construct: also called recombinant human IL-4Rα-Fc
T1 sequence (looked up): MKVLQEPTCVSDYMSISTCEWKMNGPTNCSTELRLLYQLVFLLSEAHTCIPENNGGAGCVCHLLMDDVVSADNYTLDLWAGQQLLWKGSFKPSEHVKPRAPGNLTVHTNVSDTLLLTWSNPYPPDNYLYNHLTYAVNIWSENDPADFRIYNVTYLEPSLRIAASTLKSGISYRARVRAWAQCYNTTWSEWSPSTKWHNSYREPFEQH

T2: human IL-4Rα on the cells of the hIL-4 proliferation assay (human, UniProt P24394 26-825)
T2 sequence (looked up): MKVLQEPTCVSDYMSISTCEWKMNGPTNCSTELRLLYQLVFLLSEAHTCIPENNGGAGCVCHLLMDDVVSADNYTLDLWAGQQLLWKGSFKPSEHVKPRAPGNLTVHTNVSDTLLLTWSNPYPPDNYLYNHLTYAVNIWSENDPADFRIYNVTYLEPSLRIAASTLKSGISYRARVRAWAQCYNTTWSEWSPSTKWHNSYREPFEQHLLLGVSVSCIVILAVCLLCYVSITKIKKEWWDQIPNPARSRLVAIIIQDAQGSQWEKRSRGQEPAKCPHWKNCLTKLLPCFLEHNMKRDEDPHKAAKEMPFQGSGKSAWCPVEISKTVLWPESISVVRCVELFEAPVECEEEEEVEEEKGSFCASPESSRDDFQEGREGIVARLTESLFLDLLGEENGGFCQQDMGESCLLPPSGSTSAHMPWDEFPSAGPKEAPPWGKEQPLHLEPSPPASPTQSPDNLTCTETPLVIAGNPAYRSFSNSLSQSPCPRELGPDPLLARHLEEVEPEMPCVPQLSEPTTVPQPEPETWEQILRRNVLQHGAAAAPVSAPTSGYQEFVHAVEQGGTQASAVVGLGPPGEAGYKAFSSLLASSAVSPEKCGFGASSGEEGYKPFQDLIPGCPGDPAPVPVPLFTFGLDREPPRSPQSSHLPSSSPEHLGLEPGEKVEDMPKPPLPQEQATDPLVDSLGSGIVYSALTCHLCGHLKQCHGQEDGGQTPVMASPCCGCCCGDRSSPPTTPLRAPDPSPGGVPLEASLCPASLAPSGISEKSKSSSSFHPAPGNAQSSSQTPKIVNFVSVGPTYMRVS

T3: human IL-5 (human, UniProt P05113 20-134)
T3 construct: also called hIL-5; recombinant human IL-5
T3 sequence (looked up): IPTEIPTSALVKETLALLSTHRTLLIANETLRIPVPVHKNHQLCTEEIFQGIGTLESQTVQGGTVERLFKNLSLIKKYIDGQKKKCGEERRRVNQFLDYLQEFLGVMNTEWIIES

T4: cynomolgus recombinant IL-4Rα (cynomolgus (table head: cyno/rhesus), UniProt A0A2K5V556 26-232)
T4 construct: Bought reagent; also called cyno/rhesus IL-4Rα; cyno IL-4Rα
T4 sequence: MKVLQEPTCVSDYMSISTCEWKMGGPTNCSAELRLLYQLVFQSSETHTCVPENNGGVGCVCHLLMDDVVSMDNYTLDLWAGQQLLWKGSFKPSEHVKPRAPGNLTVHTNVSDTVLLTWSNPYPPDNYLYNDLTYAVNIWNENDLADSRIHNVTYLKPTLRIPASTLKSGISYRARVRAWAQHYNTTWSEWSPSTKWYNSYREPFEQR

B1: h4R3B2 human IL-4Rα mAb (antibody, V domains shown)
VH: QLQLVESGGGLVQPGGSLRLSCAASGFTFSSYDMTWVRQAPGKGLEWVSAINSGGGSTNYADSVKGRVTISRDNAKNTLYLQMNSLKPEDTAVYFCARALRTVVHDRRLFYIDSWGQGTQVTVSS
VL: SYELTQSPSVSVALRQTAKITCGGNNIGSKSAQWYQQKPGQAPVLVIYADSRRPSGIPERFSGSNSGNTATLTVSGAQAEDEADYYCQVWDTSAVVFGGGTRLTVL
notes: also called h4RMP3B2; 4RMP3B2
B2: h5MP90E7 human IL-5 mAb (antibody, V domains shown)
VH: EVQLVESGGGLVQPGGSLRLSCAASGFAFSSSFMSWVRQAPGKGLEWVSTINGNGGTYYADSMKGRFTISRDNVKSTVTLQMNSLKPEDTAVYYCAADWISGGYYFPALGYWGQGTQVTVSS
VL: SYELTQSPSVSVALRQTAKITCGGNNIGSKSAQWYQQKPGQAPVLVIYADSRRPSGIPERFSGSNSGNTATLTISGAQAEDEADYYCQVWDVSTNAAVFGGGTHLSVL
B3: h5MP26H7 human IL-5 mAb (antibody, V domains shown)
VH: EVQLVESGGGLVQPGGSLRLSCAASGFAFSSSFMSWVRQAPGKGLEWVSTINGNGGTYYADSMKGRFTISRDNVKSTVTLQMNSLKPEDTAVYYCAADWISGGYYFPALGYWGQGTQVTVSS
VL: SYELTQSPSVSVAQTQTAKITCGGDNIGSKSVQWYQQKPGQAPVLAIYADTRRPSGIPERFSGSNSGNTATLTITGAQAEDEADYYCQVWDTSTNVAVFGGGTRLTIL
B4: h5MP90D9 human IL-5 mAb (antibody, V domains shown)
VH: EVQLVESGGGLVQPGGSLRLSCAASGFAFSSSFMSWVRQAPGKGLEWVSTINGNGGTYYADSMKGRFTISRDNVKSTVTLQMNSLKPEDTAVYYCAADWISGGYYFPALGYWGQGTQVTVSS
VL: SYELTQSPSVSVALRQTAKITCGGNNIGSLSTQWYQQKPGQAPVLVIYADNRRPSGIHERFSGSNSGNTATLTIGGAQAEDEADYYCQVWDNSANALVFGGGTHLTVL
B5: h5MP90A9 human IL-5 mAb (antibody, V domains shown)
VH: EVQLVESGGGLVQPGGSLRLSCAASGFAFSSSFMSWVRQAPGKGLEWVSTINGNGGTYYADSMKGRFTISRDNVKSTVTLQMNSLKPEDTAVYYCAADWISGGYYFPALGYWGQGTQVTVSS
VL: SYELTQSPSLSVALRQTAKMTCGGNKIGSKSAQWYQQKPGQAPVLVIYADSRRPSGIPERFAGSNAGNTATLTISGAQAEDEADYYCQVWDISANAAVFGGGTHLTVL
B6: h5MP90C8 human IL-5 mAb (antibody, V domains shown)
VH: EVQLVESGGGLVQPGGSLRLSCAASGFAFSSSFMSWVRQAPGKGLEWVSTINGNGGTYYADSMKGRFTISRDNVKSTVTLQMNSLKPEDTAVYYCAADWISGGYYFPALGYWGQGTQVTVSS
VL: SYELTQSPSVSVALRQTAKITCGGDNIGSKSAQWYQQSPGQAPVLVIYADASRPSGIPERFSGSNSGNTATLTISGARAEDEADYYCQVWDTSTNAAVFGGGTHLTVL
B7: h5MP90G7 human IL-5 mAb (antibody, V domains shown)
VH: EVQLVESGGGLVQPGGSLRLSCAASGFAFSSSFMSWVRQAPGKGLEWVSTINGNGGTYYADSMKGRFTISRDNVKSTVTLQMNSLKPEDTAVYYCAADWISGGYYFPALGYWGQGTQVTVSS
VL: SYELTQSPSVSVALRQTAKITCGGNNIGRKSAQWYQQKPGQAPVLVIYADSRRPSGIPERFSGSNSGNTATLTISGAQAEDEADYYCQVWDSSANAAVFGGGTHLTVL
B8: 3D6wt Fab (parental 4RMP3D6 as Fab) (Fab, V domains shown)
VH: QVQLQESGGGLVQPGGSLRLSCAASGFTFSSYSLTWVRQAPGKGLEWVSTIKARGGTTLYADSVKDRFTISRDNAKNTLYLLMNSLKPEDTAVYYCAKPLYNNFAGDFGSWGQGTTVTVSS
VL: DIQMTQSPSSLSASLGDRVTITCQASQSISSYLAWYQQKPGQAPKLLIYGGSRLQTGVPSRFSGSGSGTSFTLTISGLETEDLATYYCLQDYSWPLTFGQGTKVELK
notes: also called h4R3D6
B9: 150A09 Fab (variant of 4RMP3D6) (Fab, V domains shown)
VH: QVQLQESGGGLVQPGGSLRLSCAASGFTFSSYSLTWVRQAPGKGLEWVSTIKARGGTTLYADSVKDRFTISRDNAKNTLYLLMNSLKPEDTAVYYCVKPLYSNFAGDFGSWGQGTTVTVSS
VL: DIQMTQSPSSLSASLGDRVTITCQASQSISSYLAWYQQKPGQAPRLLIYGGSRLQTGVPSRFSGSGSGTSFTLTISGLETEDLATYYCQQDYSWPLTFGQGTKLEIK
notes: Fab from periplasmic extract, with CH1 and CK constant domains; also called VH150A09
B10: 152A07 Fab (variant of 4RMP3D6) (Fab, V domains shown)
VH: QVQLQESGGGLVQPGGSLRLSCAASGFTFSSYSLTWVRQAPGKGLEWVSTIKARGGTTLYADSVKDRFTISRDNAKNTLYLLMNSLKPEDTAVYYCAKPLYSNLAGDLGSWGQGTTVTVSS
VL: DIQMTQSPSSLSASLGDRVTITCQASQSISSYLAWYQQKPGQAPKLLIYGGSRLQTGVPSRFSGSGSGTSFTLTISGLETEDLATYYCLQDYSWPLTFGQGTKLEIK
notes: also called VH152A07
B11: 153E11 Fab (variant of 4RMP3D6) (Fab, V domains shown)
VH: QVQLQESGGGLVQPGGSLRLSCAASGFTFSSYSLTWVRQAPGKGLEWVSTIKARGGTTLYADSVKDRFTISRDNAKNTLYLLMNSLKPEDTAVYYCAKPLYNNFAGHFGSWGQGTTVTVSS
VL: DIQMTQSPSSLSASLGDRVTITCQASQSISSYLAWYQQKPGQAPKLLIYGGSRLQTGVPSRFSGSGSGTSFTLTISGLETEDLATYYCQQDYSWPLTFGQGTKLEIK
notes: Fab from periplasmic extract, with CH1 and CK constant domains; also called VH153E11
B12: 152B10 Fab (variant of 4RMP3D6) (Fab, V domains shown)
VH: QVQLQESGGGLVQPGGSLRLSCAASGFTFSSYSLTWVRQAPGKGLEWVSTIKARGGTTLYADSVKDRFTISRDNAKNTLYLLVNSLKPEDTAVYYCAKPLYNNLAGDFGSWGQGTTVTVSS
VL: DIQMTQSPSSLSASLGDRVTITCQASQSISSYLAWYQQKPGQAPKLLIYGGSRLQAGVPSRFSGSGSGTSFTLTIGGLETEDLATYYCQQDYSWPLTFGQGTKLEIK
notes: Fab from periplasmic extract, with CH1 and CK constant domains; also called VH152B10
B13: 153A11 Fab (variant of 4RMP3D6) (Fab, V domains shown)
VH: QVQLQESGGGLVQPGGSLRLSCAASGFTFSSYSLTWVRQAPGKGLEWVSTIKARGGTTLYADSVKDRFTISRDNAKNTLYLQMNSLKPEDTAVYYCAKPLYSNLAGDFGSWGQGTTVTVSS
VL: DIQMTQSPSSLSASLGDRVTITCQASQSISSYLAWYQQKSGQAPKLLIYGGSRLQTGVPSRFSGSGSGTSFTLTISGLETEDLATYYCLQVYSWPLTFGQGTKLEIK
notes: Fab from periplasmic extract, with CH1 and CK constant domains; also called VH153A11
B14: h4R5D1 human IL-4Rα mAb (antibody, V domains shown)
VH: QLQLVESGGGLVQPGGSLRLSCAASGFTFSSYIMSWVRQAPGKGLEWVSGISSGGGITAYADSVKGRFTISRDNAKNTLYLQMNSLKPDDTAVYYCVAGLLRVEGYWGQGTQVTVSS
VL: QTVVTQEPSLSVSPGGTVTLTCGLSSGSVTSSNYPGWYQQTPGQAPRSLIYATASRHSGVPSRYSGSISGNKATLTITGAEPEDEADYYCALHKGTYVFGGGTKLTVL
notes: also called h4RMP5D1; 4RMP5D1

Key:
[1] = biological target: T1, human IL-4Rα (SPR target); test: SPR as described in Example 2
[2] = biological target: T2, human IL-4Rα on the cells of the hIL-4 …; test: cell-based or functional assay
[3] = biological target: T3, human IL-5; test: SPR as described in Example 2
[4] = biological target: T3, human IL-5; test: cell-based or functional assay
[5] = biological target: T4, cynomolgus recombinant IL-4Rα; test: SPR (Biacore 3000), periplasmic Fab over CM5 chip coated with cyno IL-4Rα
Excerpt: (§1) After 3 rounds of selection, clones were selected (from round 2 and 3), and Fab was produced from the periplasmic extracts and tested by SPR.

[6] = biological target: T1, human IL-4Rα (SPR target); test: SPR (Biacore 3000), periplasmic Fab over CM5 chip coated with human IL-4Rα
Excerpt: as §1

| Binder | Kd [1] | IC50 (nM), proliferation assay with hIL-4 (1.5 ng/mL) [2] | Kd [3] | IC50 (pM), proliferation assay with hIL-5 (0.25 ng/mL) [4] | R0 (binding) [5] | koff [5] | R0 (binding) [6] | koff [6] |
| --- | --- | --- | --- | --- | --- | --- | --- | --- |
| B1 | 81.8 pM | 0.4 nM |  |  |  |  |  |  |
| B2 |  |  | 129 pM | 8.84 pM |  |  |  |  |
| B3 |  |  | 74.9 pM | 37.5 pM |  |  |  |  |
| B4 |  |  | 26.4 pM | 6.84 pM |  |  |  |  |
| B5 |  |  | 83.5 pM | 4.99 pM |  |  |  |  |
| B6 |  |  | 133 pM | 6.93 pM |  |  |  |  |
| B7 |  |  | 113 pM | 1.61 pM |  |  |  |  |
| B8 |  |  |  |  | 26 | 0.0017 s⁻¹ | 204 | 0.00053 s⁻¹ |
| B9 |  |  |  |  | 80 | 0.002 s⁻¹ | 53 | 0.00084 s⁻¹ |
| B10 |  |  |  |  | 94 | 0.0017 s⁻¹ | 58 | 0.00069 s⁻¹ |
| B11 |  |  |  |  | 78 | 0.0014 s⁻¹ | 56 | 0.00043 s⁻¹ |
| B12 |  |  |  |  | 170 | 0.0026 s⁻¹ | 110 | 0.0012 s⁻¹ |
| B13 |  |  |  |  | 146 | 0.00033 s⁻¹ | 68 | 0.002 s⁻¹ |
| B14 | 44.2 pM | 0.2 nM |  |  |  |  |  |  |
